Results reported in article PMC6155142, “OCP–FRP protein complex topologies suggest a mechanism for controlling high light tolerance in cyanobacteria” (Nature Communications, 2018).
Where “and” joins values, the source holds several entries; their conditions need not be identical. Identical values can stand only once.

B1: ∆NTE^O, orange form of Synechocystis OCP lacking the N-terminal extension (residues 1–20) (domain or fragment)
chain: VPATIARFSQLNAEDQLALIWFAYLEMGKTLTIAAPGAASMQLAENALKEIQAMGPLQQTQAMCDLANRADTPLCRTYASWSPNIKLGFWYRLGELMEQGFVAPIPAGYQLSANANAVLATIQGLESGQQITVLRNAVVDMGFTAGKDGKRIAEPVVPPQDTASRTKVSIEGVTNATVLNYMDNLNANDFDTLIELFTSDGALQPPFQRPIVGKENVLRFFREECQNLKLIPERGVTEPAEDGFTQIKVTGKVQTPWFGGNVGMNIAWRFLLNPEGKIFFVAIDLLASPKELLNFAR

Columns and labels:
[1] = target: OCP(O) (Synechocystis sp.) (UniProt P74102); conditions: cited from earlier work
[2] = target: ∆NTE^O, orange form of Synechocystis OCP lacking the N-terminal extension (residues 1–20) (Synechocystis sp. PCC 6803) (UniProt P74102); experiment: cross-linking; FRP species, ∆NTE^O or their mixtures in 20 mM Hepes-NaOH pH 7.5, 150 mM NaCl, 0.1 mM EDTA; 0.1% glutaraldehyde, 25 min, room temperature; 15% SDS-PAGE (no reducing agents with oxFRPcc); conditions: scale: FRP chains per OCP
[3] = target: T1, oxidized FRPcc (L33C/I43C mutant of Synechocystis FRP), disulfide-trapped dimer (Synechocystis, UniProt P74103 1-109, L33C | I43C, intersubunit disulfide bridges between C33 and C43)
T1 sequence: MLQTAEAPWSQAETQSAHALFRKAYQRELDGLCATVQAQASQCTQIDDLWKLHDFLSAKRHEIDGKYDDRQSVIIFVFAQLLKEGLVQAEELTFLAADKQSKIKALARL

[4] = target: T2, ∆NTE^O, orange form of Synechocystis OCP lacking the N-terminal extension (residues 1–20) (Synechocystis sp. PCC 6803, UniProt P74102 21-317); experiment: cross-linking; FRP species, ∆NTE^O or their mixtures in 20 mM Hepes-NaOH pH 7.5, 150 mM NaCl, 0.1 mM EDTA; 0.1% glutaraldehyde, 25 min, room temperature; 15% SDS-PAGE (no reducing agents with oxFRPcc); conditions: both partners purified
T2 construct: orange carotenoid protein (OCP) of Synechocystis sp; PCC 6803 without the NTE (residues 1–20); also called ∆NTE^O monomer
T2 sequence (looked up): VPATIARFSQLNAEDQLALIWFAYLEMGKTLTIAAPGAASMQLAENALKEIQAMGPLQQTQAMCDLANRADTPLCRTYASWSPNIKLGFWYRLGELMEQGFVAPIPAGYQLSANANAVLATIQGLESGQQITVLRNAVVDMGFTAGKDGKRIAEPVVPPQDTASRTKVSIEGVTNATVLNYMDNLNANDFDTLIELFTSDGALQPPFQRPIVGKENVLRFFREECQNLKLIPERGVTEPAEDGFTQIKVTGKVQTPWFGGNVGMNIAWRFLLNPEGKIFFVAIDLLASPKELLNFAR

[5] = target: B1
[6] = target: T3, OCP–F299C mutant of Synechocystis OCP (Synechocystis sp. PCC 6803, UniProt P74102 1-317, F299C); experiment: cell-based or functional assay
T3 sequence (looked up): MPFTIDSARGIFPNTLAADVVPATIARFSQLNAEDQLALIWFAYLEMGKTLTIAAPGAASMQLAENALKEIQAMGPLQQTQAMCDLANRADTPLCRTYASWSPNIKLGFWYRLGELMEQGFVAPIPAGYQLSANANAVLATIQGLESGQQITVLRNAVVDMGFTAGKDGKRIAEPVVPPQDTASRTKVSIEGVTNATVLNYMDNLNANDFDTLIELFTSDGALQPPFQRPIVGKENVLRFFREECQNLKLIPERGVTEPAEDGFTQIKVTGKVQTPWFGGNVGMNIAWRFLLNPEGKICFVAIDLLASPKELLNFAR

[7] = target: the molecule itself; experiment: SEC; FRP species alone, 1–40 µM per monomer, pre-incubated at least 20 min at room temperature; Superdex 200 Increase 10/300; 20 mM Tris-HCl pH 7.6, 150 mM NaCl, 0.1 mM EDTA, 3 mM βME (reducing); dimer to monomers
[8] = target: T4, OCP^Y201A/W288A, constantly active mutant of Synechocystis orange carotenoid protein (Synechocystis sp. PCC 6803, UniProt P74102 1-317, Y201A | W288A); experiment: SEC; redFRPcc or FRP-L49E (50 µM) pre-incubated with OCP^AA (37 µM), ∆NTE^O (6 µM) or COCP (8 µM); Superdex 200 Increase 10/300; 280 nm and carotenoid-specific absorbance; conditions: both partners purified
T4 construct: orange carotenoid protein (OCP) of Synechocystis sp; PCC 6803 with Y201A and W288A; also called OCP^AA
T4 sequence (looked up): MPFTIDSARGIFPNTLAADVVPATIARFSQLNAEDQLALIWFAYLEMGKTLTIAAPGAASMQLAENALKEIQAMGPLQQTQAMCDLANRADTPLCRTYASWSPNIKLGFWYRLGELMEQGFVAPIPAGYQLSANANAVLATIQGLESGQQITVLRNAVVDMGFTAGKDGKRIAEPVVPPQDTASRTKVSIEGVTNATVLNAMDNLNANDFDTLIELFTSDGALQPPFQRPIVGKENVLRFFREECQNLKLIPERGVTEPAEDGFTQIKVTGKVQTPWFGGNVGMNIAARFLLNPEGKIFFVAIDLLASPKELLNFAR

[9] = target: T2, ∆NTE^O, orange form of Synechocystis …; experiment: as above; conditions: both partners purified
[10] = target: T5, COCP, individual C-terminal domain of Synechocystis OCP (amino acids 165–317) (Synechocystis sp. PCC 6803, UniProt P74102 165-317); experiment: as above; conditions: both partners purified
T5 construct: C-terminal domain of the orange carotenoid protein (OCP) of Synechocystis sp; PCC 6803, amino acids 165–317; also called CTD; individual CTD
T5 sequence (looked up): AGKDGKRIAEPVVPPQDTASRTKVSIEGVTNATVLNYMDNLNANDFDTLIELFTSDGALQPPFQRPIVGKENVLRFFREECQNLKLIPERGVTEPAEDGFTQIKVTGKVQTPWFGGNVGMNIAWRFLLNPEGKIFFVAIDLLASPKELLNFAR

[11] = target: T3, OCP–F299C mutant of Synechocystis OCP; experiment: cross-linking; disulfide trapping: OCP–F299C apoform mixed with FRP–F76C or FRP–K102C, oxidized in the dark by dialysis at 4 °C against GSH/GSSG (or 30–60 min with 10–50 mM H2O2); SDS-PAGE with or without 20 mM βME; conditions: both partners purified
[12] = target: the molecule itself; experiment: SAXS; oxFRPcc alone (1.7 mg ml^−1) and the ∆NTE^O–oxFRPcc complex (2.41 mg ml^−1, ~40 µM); batch mode, 10 °C, SEC buffer with 3% glycerol, no reducing agents
[13] = target: T2, ∆NTE^O, orange form of Synechocystis …; experiment: as above; conditions: both partners purified

In the case of FRP (from UniProt P74103), the Kd [1] is given as 35000 nM.

For “FRP homolog from Anabaena variabilis (natural protein)”, the stoichiometry N [2] was 1 and 2.

Molecule B1 has a Kd [3] of 220 nM.

B2: wild-type Synechocystis fluorescence recovery protein (FRP), His6-tagged, residues 1–109 (natural protein, UniProt P74103 1-109, looked up)
chain: MLQTAEAPWSQAETQSAHALFRKAYQRELDGLLATVQAQASQITQIDDLWKLHDFLSAKRHEIDGKYDDRQSVIIFVFAQLLKEGLVQAEELTFLAADKQSKIKALARL
notes: fluorescence recovery protein (FRP) of Synechocystis, residues 1–109; cloned into pQE81L by BamHI/HindIII; Uncleavable tag; Dissociable dimer; also called FRPwt; wild-type FRP; not shown: His6, N-terminal, kept
In the case of B2, the “stoichiometry N” value [4] is reported as 1 FRP chains per OCP (printed as OCP:FRP 1:1) and 2 FRP chains per OCP (printed as OCP:FRP 1:2), the Kd [5] is reported as 190 nM and the “acceleration of the R–O conversion of photoactivated OCP–F299C at 25 °C” value [6] is reported as about 20 fold. The “stoichiometry N” value [7] was 2.

B3: FRPcc (L33C/I43C mutant of Synechocystis FRP) under reducing conditions (natural protein, UniProt P74103 1-109, looked up)
chain: MLQTAEAPWSQAETQSAHALFRKAYQRELDGLCATVQAQASQCTQIDDLWKLHDFLSAKRHEIDGKYDDRQSVIIFVFAQLLKEGLVQAEELTFLAADKQSKIKALARL
notes: fluorescence recovery protein (FRP) of Synechocystis, residues 1–109, with L33C and I43C; made from the His6-tagged wild-type template; Cysteines reduced; dissociable dimer (dimeric above 10 µM load, partly dissociates on dilution); also called redFRPcc; not shown: His6, N-terminal, kept
B3: binds [8]; binds [9]; binds [10]. For the same molecule, the “stoichiometry N” value [7] was 2.

B4: FRP–K102C mutant of Synechocystis FRP (natural protein, UniProt P74103 1-109, looked up)
chain: MLQTAEAPWSQAETQSAHALFRKAYQRELDGLLATVQAQASQITQIDDLWKLHDFLSAKRHEIDGKYDDRQSVIIFVFAQLLKEGLVQAEELTFLAADKQSCIKALARL
notes: fluorescence recovery protein (FRP) of Synechocystis with K102C, from M1 (N-terminus after cleavage of the tag: GPDPATM1LQ…); the wild-type construct is residues 1–109; pQE81M vector; the His6 tag is cleavable by 3C protease and leaves GPDPAT before M1
In the case of B4, the “stoichiometry N” value [11] is reported as 1 FRP chains per OCP (printed as 1:1).

B5: oxidized FRPcc (L33C/I43C mutant of Synechocystis FRP), disulfide-trapped dimer (natural protein, UniProt P74103 1-109, looked up)
chain: MLQTAEAPWSQAETQSAHALFRKAYQRELDGLCATVQAQASQCTQIDDLWKLHDFLSAKRHEIDGKYDDRQSVIIFVFAQLLKEGLVQAEELTFLAADKQSKIKALARL
modifications: intersubunit disulfide bridges between C33 and C43
notes: fluorescence recovery protein (FRP) of Synechocystis, residues 1–109, with L33C and I43C; made from the His6-tagged wild-type template; Same polypeptide as m3, but covalently fixed as a dimer that cannot monomerize; 22 N-terminal residues of the construct are absent from 4JDX; also called oxFRPcc; oxFRPcc dimer; source: E. coli T7 SHuffle express, purified in the absence of reducing agents, …
With B5 the “stoichiometry N” value [4] was 2 FRP chains per OCP (printed as OCP:FRP 1:2) and 1 FRP chains per OCP (printed as OCP:FRP 2:2), the “stoichiometry N” value [12] was 2 and the “stoichiometry N” value [13] was 2 FRP chains per OCP (printed as 2:1).
